Values of other authors, collected in patent US20230250195A1, “Methods for Reducing Infusion-Related Reactions in Patients Treated with EGFR/Met Bispecific Antibodies” (Janssen Biotech, Inc., priority 2022, published 2023).

Conditions: 302 patients with locally advanced or metastatic NSCLC; IV amivantamab at recommended Phase 2 dose (RP2D) as a single agent

Substance: amivantamab: IgG1 anti-EGFR/c-Met bispecific antibody described in U.S. Pat. No. 9,593,164
- incidence of infusion-related reactions (IRRs): 66%
